Measurements published in PMC9369017.

Legend:
[1] = biological target: hexahistidine tagged RBD WT (SARS CoV-2, isolate Wuhan-Hu-1, aa residues 319-541) (SARS-CoV-2) (UniProt P0DTC2); assay: peptide or protein array
[2] = biological target: SARS-CoV-2 spike protein on Ramos-S cells (SARS-CoV-2) (UniProt P0DTC2); assay: flow cytometry on cells
EflACE2-Fc-WT (human) = EflACE2-Fc-WT (human) (UniProt Q9BYF1); assay: BLI

Substance	IC50 [1] [nM]	median fluorescence intensity [2]	Kd (EflACE2-Fc-WT (human)) [nM]
EflACE2-Fc-WT (from UniProt Q9BYF1 19-740) (Fc fusion)	10	19600	–
trACE2-Fc-kif (from UniProt Q9BYF1 19-615) (Fc fusion)	–	16400	–
trACE2-Fc WT (from UniProt Q9BYF1 19-615) (Fc fusion)	114	15500	–
SARS-CoV-2 spike RBD (analyte of the BLI) (from UniProt P0DTC2) (domain or fragment)	–	–	0.7
flACE2-Fc-WT (from UniProt Q9BYF1 19-740) (Fc fusion)	80	17200	–
